The series in a line: self-splicing fitness, log relative to wild type (ln ratio); higher = more splicing; Tetrahymena group I intron in knt gene, E. coli kanamycin selection, DiMSum; sequences stand for … in CUCUCU…GGAGGGAAAAGUUAUCAGGCAUGCACCUGGUAGCUAGUCUUUAAACCAAUAGAUUGCAUCGGUUUAAAAGGCAAGACCGUCAAAUUGCGGGAAAGGGGUCAACAGCCGUUCAGUACCAAGUCUCAGGGGAAACUUUGAGAUGGCCUUGCAAAGGGUAUGGUAAUAAGCUGACGGACAUGGUCCUAACCACGCAGCCAAGUCCUAAGUCAACAGAUCUUCUGUUGAUAUGGAUGCAGUUCACAGACUAAAUGUCGGUCGGGGAAGAUGUAUUCUUCUCAUAAGAUAUAGUCGGACCUCUCCUUAAUGGGAGCUAGCGGAUGAAGUGAUGCAACACUGGAGCCGCUGGGAACUAAUUUGUAUGCGAAAGUAUAUUGAUUAGUUUUGGAGUACUCGUGGUCG
In a few lines: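 Fitness was computed with DiMSum as the error-weighted combination of replicate fold changes, kanamycin versus none, each normalised to wild type. The library randomised all eight intron nucleotides of the P1ex region, with the intron placed in the knt kanamycin-resistance gene on pET-22b(+) in E. coli BL21(DE3). Six replicate transformations were grown overnight at 37°C or 30°C on LB agar with or without 25 μg/mL kanamycin, plus 100 μg/mL carbenicillin, 50 μM IPTG and 0.2% rhamnose. Pooled colonies were amplicon-sequenced on an Illumina HiSeq 2500.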

± gives the uncertainty stated by the source.

Results on 37 sequences are retold here after the supplement of paper PMC7877785.

Turning to CCAUAGCAAUAUUACGACAC, the “self-splicing fitness (ln)” value (30 °C) is -2.94 ± 0.29 and the “self-splicing fitness (ln)” value (37 °C) is -1.99 ± 0.37.

For the sequence AUAAAGCAAUAUUACGUAUA, the “self-splicing fitness (ln)” value is, setting by setting: (30 °C) -1.91 ± 0.099; (37 °C) -0.351 ± 0.12.

As for CCAGAGCAAUAUUACGGAUG, the “self-splicing fitness (ln)” value runs as follows: (30 °C) -2.56 ± 0.15; (37 °C) -1.3 ± 0.18.

Regarding GAGGAGCAAUAUUACGCCGG, the “self-splicing fitness (ln)” value is, setting by setting: (30 °C) -3.44 ± 0.48; (37 °C) -2.68 ± 0.36.

GUAAAGCAAUAUUACGAUAC: the “self-splicing fitness (ln)” value is -0.815 ± 0.14 (30 °C) and -0.547 ± 0.16 (37 °C).

AGCUAGCAAUAUUACGGAUC: the “self-splicing fitness (ln)” value reads like this: (30 °C) -1.26 ± 0.12; (37 °C) -1.54 ± 0.16.

In the case of AGGCAGCAAUAUUACGCAGG, the “self-splicing fitness (ln)” value (30 °C) was -1.39 ± 0.084 and the “self-splicing fitness (ln)” value (37 °C) is -1.17 ± 0.1.

Regarding AUUUAGCAAUAUUACGACAG, the “self-splicing fitness (ln)” value by setting is: (30 °C) -2.19 ± 0.24; (37 °C) 0.257 ± 0.26.

For AUCAAGCAAUAUUACGGCUU, the “self-splicing fitness (ln)” value by setting is: (30 °C) -2.87 ± 0.13; (37 °C) -1.54 ± 0.14.

Turning to CUGAAGCAAUAUUACGUCGG, the “self-splicing fitness (ln)” value (30 °C) is -3.11 ± 0.18 and the “self-splicing fitness (ln)” value (37 °C) was -1.14 ± 0.16.

Regarding ACGUAGCAAUAUUACGUAGG, the “self-splicing fitness (ln)” value is, setting by setting: (30 °C) -3.76 ± 0.18; (37 °C) -1.73 ± 0.13.

CAUAAGCAAUAUUACGUCUA: the “self-splicing fitness (ln)” value was -2.41 ± 0.14 (30 °C) and -1.4 ± 0.11 (37 °C).

For UAGCAGCAAUAUUACGCGCG, the “self-splicing fitness (ln)” value (30 °C) is -1.09 ± 0.17 and the “self-splicing fitness (ln)” value (37 °C) was 0.624 ± 0.17.

Turning to UAUUAGCAAUAUUACGGCGG, the “self-splicing fitness (ln)” value by setting is: (30 °C) -0.834 ± 0.11; (37 °C) -0.195 ± 0.12.

Take UAAAAGCAAUAUUACGACAG: the “self-splicing fitness (ln)” value runs as follows: (30 °C) -0.555 ± 0.057; (37 °C) -0.173 ± 0.074.

On to CGCCAGCAAUAUUACGGACA, for which the “self-splicing fitness (ln)” value runs as follows: (30 °C) -0.882 ± 0.11; (37 °C) -0.254 ± 0.11.

Consider CCGAAGCAAUAUUACGGAAU, for which the “self-splicing fitness (ln)” value (30 °C) was -3.74 ± 0.19 and the “self-splicing fitness (ln)” value (37 °C) is -3 ± 0.24.

On to AAACAGCAAUAUUACGGUCC, for which the “self-splicing fitness (ln)” value by setting is: (30 °C) -2.09 ± 0.12; (37 °C) -0.775 ± 0.11.

As for UAAGAGCAAUAUUACGUGUG, the “self-splicing fitness (ln)” value was -2.99 ± 0.18 (30 °C) and -1.4 ± 0.14 (37 °C).

Turning to CCGAAGCAAUAUUACGGCCA, the “self-splicing fitness (ln)” value reads like this: (30 °C) -2.76 ± 0.17; (37 °C) -2.3 ± 0.18.

Take UAAGAGCAAUAUUACGGGCA: the “self-splicing fitness (ln)” value (30 °C) is -2.73 ± 0.26 and the “self-splicing fitness (ln)” value (37 °C) was -1.99 ± 0.24.

As to AGGUAGCAAUAUUACGAACU, the “self-splicing fitness (ln)” value amounted to 0.0152 ± 0.016 (30 °C) and 0.016 ± 0.034 (37 °C).

Consider AGCAAGCAAUAUUACGUCCU, for which the “self-splicing fitness (ln)” value runs as follows: (30 °C) 0.639 ± 0.099; (37 °C) 0.541 ± 0.11.

As for GGGCAGCAAUAUUACGAUUU, the “self-splicing fitness (ln)” value by setting is: (30 °C) -0.054 ± 0.053; (37 °C) -0.281 ± 0.065.

On to GAACAGCAAUAUUACGUCGG, for which the “self-splicing fitness (ln)” value runs as follows: (30 °C) -2.64 ± 0.16; (37 °C) -1.85 ± 0.28.

UUGCAGCAAUAUUACGGGAC: the “self-splicing fitness (ln)” value by setting is: (30 °C) -3.01 ± 0.25; (37 °C) -2.37 ± 0.39.

With GUUCAGCAAUAUUACGCUAC, the “self-splicing fitness (ln)” value reads like this: (30 °C) -3.75 ± 0.29; (37 °C) -2.67 ± 0.26.

As to CGCAAGCAAUAUUACGGGAA, the “self-splicing fitness (ln)” value was -2.96 ± 0.2 (30 °C) and -2.27 ± 0.19 (37 °C).

As to GACAAGCAAUAUUACGCUAC, the “self-splicing fitness (ln)” value reads like this: (30 °C) -3.62 ± 0.31; (37 °C) -2.54 ± 0.23.

For UAAUAGCAAUAUUACGGCAC, the “self-splicing fitness (ln)” value is -2.86 ± 0.22 (30 °C) and -1.48 ± 0.19 (37 °C).

In the case of GUAAAGCAAUAUUACGCCUU, the “self-splicing fitness (ln)” value (30 °C) is -1.57 ± 0.11 and the “self-splicing fitness (ln)” value (37 °C) stood at 0.238 ± 0.15.

On to AGUGAGCAAUAUUACGCAUA, for which the “self-splicing fitness (ln)” value (30 °C) was -4.2 ± 0.43 and the “self-splicing fitness (ln)” value (37 °C) is -2.56 ± 0.29.

In the case of AAGGAGCAAUAUUACGGAUA, the “self-splicing fitness (ln)” value was -3.9 ± 0.35 (30 °C) and -1.99 ± 0.29 (37 °C).

For CCUCAGCAAUAUUACGUACA, the “self-splicing fitness (ln)” value was -3.73 ± 0.29 (30 °C) and -2.78 ± 0.34 (37 °C).

With GAAAAGCAAUAUUACGCAGC, the “self-splicing fitness (ln)” value is -2.9 ± 0.17 (30 °C) and -1.74 ± 0.19 (37 °C).

With CUGCAGCAAUAUUACGCCAU, the “self-splicing fitness (ln)” value reads like this: (30 °C) -3.9 ± 0.2; (37 °C) -3.42 ± 0.17.

In the case of GCAUAGCAAUAUUACGCGAG, the “self-splicing fitness (ln)” value was -2.42 ± 0.23 (30 °C) and -1.72 ± 0.17 (37 °C).
